Here are results for six molecules from patent US20230212319A1, “NOVEL ANTIGEN BINDING DOMAINS AND SYNTHETIC ANTIGEN RECEPTORS INCORPORATING THE SAME” (University of Southern California, priority 2020, published 2023).

B1: 22234 (protein)
chain: MALPVTALLLPLALLLHAARPDIQMTQSPSSLSASVGDRVTITCKASDHINNWLAWYQQKPGQAPKLLIYGATTLETGVPSRFSGSGSGTDYTLTISSLQPEDFATYYCQQSWNTPWTFGQGTKLEIKRLEDLKNVFPPEVAVFEPSEAEISHTQKATLVCLATGFYPDHVELSWWVNGKEVHSGVCTDPQPLKEQPALNDSRYCLSSRLRVSATFWQNPRNHFRCQVQFYGLSENDEWTQDRAKPVTQIVSAEAWGRADCGFTSESYQQGVLSATILYEILLGKATLYAVLVSALVLMAMVKRKDSRGRAKRSGSGATNFSLLKQAGDVEENPGPTSATMDWIWRILFLVGAATGAHSQLGPYELWELSHGSGSGSGSQLGPYELWELSHSGGGSGQLGPYELWELSHGSSGPGSGSCQFDLSTRRLKCGSGSCQFDLSTRRLKCGSGGGGSGGGGSGGGGSFEQVQLQQPGAELVKPGASVKMSCKASGYAFSSYWINWMKQKPGQGLEWIGQIYPGDGDTNYNGKFKGRATLTADTSSSTAYMQLSSLTSEDSAVYFCARSITTVVGCAMDYWGQGTSVTVSSTRIQNPDPAVYQLRDSKSSDKSVCLFTDFDSQTNVSQSKDSDVYITDKCVLDMRSMDFKSNSAVAWSNKSDFACANAFNNSIIPEDTFFPSPESSCDVKLVEKSFETDTNLNFQNLSVIGFRILLLKVAGFNLLMTLRLWSSRAKRSGSGVKQTLNFDLLKLAGDVESNPGPSRGHMTEYKPTVRLATRDDVPRAVRTLAAAFADYPATRHTVDPDRHIERVTELQELFLTRVGLDIGKVWVADDGAAVAVWTTPESVEAGAVFAEIGPRMAELSGSRLAAQQQMEGLLAPHRPKEPAWFLATVGVSPDHQGKGLGSAVVLPGVEAAERAGVPAFLETSAPRNLPFYERLGFTVTADVEVPEGPRTWCMTRKPGA
B2: 22230 (protein)
chain: MALPVTALLLPLALLLHAARPDIQMTQSPSSLSASVGDRVTITCKASDHINNWLAWYQQKPGQAPKLLIYGATTLETGVPSRFSGSGSGTDYTLTISSLQPEDFATYYCQQSWNTPWTFGQGTKLEIKRLEDLKNVFPPEVAVFEPSEAEISHTQKATLVCLATGFYPDHVELSWWVNGKEVHSGVCTDPQPLKEQPALNDSRYCLSSRLRVSATFWQNPRNHFRCQVQFYGLSENDEWTQDRAKPVTQIVSAEAWGRADCGFTSESYQQGVLSATILYEILLGKATLYAVLVSALVLMAMVKRKDSRGRAKRSGSGATNFSLLKQAGDVEENPGPTSATMDWIWRILFLVGAATGAHSGPQDKLTQWPKWLEGGGGSELPTQGTFSNVSTNVSGGGGQDKLTQWPKWLEGGGGSELPTQGTFSNVSTNVSGSGGGGSGGGGSGGGGSFEQVQLQQPGAELVKPGASVKMSCKASGYAFSSYWINWMKQKPGQGLEWIGQIYPGDGDTNYNGKFKGRATLTADTSSSTAYMQLSSLTSEDSAVYFCARSITTVVGCAMDYWGQGTSVTVSSTRIQNPDPAVYQLRDSKSSDKSVCLFTDFDSQTNVSQSKDSDVYITDKCVLDMRSMDFKSNSAVAWSNKSDFACANAFNNSIIPEDTFFPSPESSCDVKLVEKSFETDTNLNFQNLSVIGFRILLLKVAGFNLLMTLRLWSSRAKRSGSGVKQTLNFDLLKLAGDVESNPGPSRGHMTEYKPTVRLATRDDVPRAVRTLAAAFADYPATRHTVDPDRHIERVTELQELFLTRVGLDIGKVWVADDGAAVAVWTTPESVEAGAVFAEIGPRMAELSGSRLAAQQQMEGLLAPHRPKEPAWFLATVGVSPDHQGKGLGSAVVLPGVEAAERAGVPAFLETSAPRNLPFYERLGFTVTADVEVPEGPRTWCMTRKPGA
B3: 22237 (protein)
chain: MALPVTALLLPLALLLHAARPDIQMTQSPSSLSASVGDRVTITCKASDHINNWLAWYQQKPGQAPKLLIYGATTLETGVPSRFSGSGSGTDYTLTISSLQPEDFATYYCQQSWNTPWTFGQGTKLEIKRLEDLKNVFPPEVAVFEPSEAEISHTQKATLVCLATGFYPDHVELSWWVNGKEVHSGVCTDPQPLKEQPALNDSRYCLSSRLRVSATFWQNPRNHFRCQVQFYGLSENDEWTQDRAKPVTQIVSAEAWGRADCGFTSESYQQGVLSATILYEILLGKATLYAVLVSALVLMAMVKRKDSRGRAKRSGSGATNFSLLKQAGDVEENPGPTSATMDWIWRILFLVGAATGAHSGCPKWDAARCSGGGSGPGSGSCQFDLSTRRLKCGSGSCQFDLSTRRLKCGSGGGGSGGGGSGGGGSFEQVQLQQPGAELVKPGASVKMSCKASGYAFSSYWINWMKQKPGQGLEWIGQIYPGDGDTNYNGKFKGRATLTADTSSSTAYMQLSSLTSEDSAVYFCARSITTVVGCAMDYWGQGTSVTVSSTRIQNPDPAVYQLRDSKSSDKSVCLFTDFDSQTNVSQSKDSDVYITDKCVLDMRSMDFKSNSAVAWSNKSDFACANAFNNSIIPEDTFFPSPESSCDVKLVEKSFETDTNLNFQNLSVIGFRILLLKVAGFNLLMTLRLWSSRAKRSGSGVKQTLNFDLLKLAGDVESNPGPSRGHMTEYKPTVRLATRDDVPRAVRTLAAAFADYPATRHTVDPDRHIERVTELQELFLTRVGLDIGKVWVADDGAAVAVWTTPESVEAGAVFAEIGPRMAELSGSRLAAQQQMEGLLAPHRPKEPAWFLATVGVSPDHQGKGLGSAVVLPGVEAAERAGVPAFLETSAPRNLPFYERLGFTVTADVEVPEGPRTWCMTRKPGA
B4: 22236 (protein)
chain: MALPVTALLLPLALLLHAARPDIQMTQSPSSLSASVGDRVTITCKASDHINNWLAWYQQKPGQAPKLLIYGATTLETGVPSRFSGSGSGTDYTLTISSLQPEDFATYYCQQSWNTPWTFGQGTKLEIKRLEDLKNVFPPEVAVFEPSEAEISHTQKATLVCLATGFYPDHVELSWWVNGKEVHSGVCTDPQPLKEQPALNDSRYCLSSRLRVSATFWQNPRNHFRCQVQFYGLSENDEWTQDRAKPVTQIVSAEAWGRADCGFTSESYQQGVLSATILYEILLGKATLYAVLVSALVLMAMVKRKDSRGRAKRSGSGATNFSLLKQAGDVEENPGPTSATMDWIWRILFLVGAATGAHSIYPPLLRTSQAMGSGGPGSGSCQFDLSTRRLKCGSGSCQFDLSTRRLKCGSGGGGSGGGGSGGGGSFEQVQLQQPGAELVKPGASVKMSCKASGYAFSSYWINWMKQKPGQGLEWIGQIYPGDGDTNYNGKFKGRATLTADTSSSTAYMQLSSLTSEDSAVYFCARSITTVVGCAMDYWGQGTSVTVSSTRIQNPDPAVYQLRDSKSSDKSVCLFTDFDSQTNVSQSKDSDVYITDKCVLDMRSMDFKSNSAVAWSNKSDFACANAFNNSIIPEDTFFPSPESSCDVKLVEKSFETDTNLNFQNLSVIGFRILLLKVAGFNLLMTLRLWSSRAKRSGSGVKQTLNFDLLKLAGDVESNPGPSRGHMTEYKPTVRLATRDDVPRAVRTLAAAFADYPATRHTVDPDRHIERVTELQELFLTRVGLDIGKVWVADDGAAVAVWTTPESVEAGAVFAEIGPRMAELSGSRLAAQQQMEGLLAPHRPKEPAWFLATVGVSPDHQGKGLGSAVVLPGVEAAERAGVPAFLETSAPRNLPFYERLGFTVTADVEVPEGPRTWCMTRKPGA
B5: 22227 (protein)
chain: MALPVTALLLPLALLLHAARPDIQMTQSPSSLSASVGDRVTITCKASDHINNWLAWYQQKPGQAPKLLIYGATTLETGVPSRFSGSGSGTDYTLTISSLQPEDFATYYCQQSWNTPWTFGQGTKLEIKRLEDLKNVFPPEVAVFEPSEAEISHTQKATLVCLATGFYPDHVELSWWVNGKEVHSGVCTDPQPLKEQPALNDSRYCLSSRLRVSATFWQNPRNHFRCQVQFYGLSENDEWTQDRAKPVTQIVSAEAWGRADCGFTSESYQQGVLSATILYEILLGKATLYAVLVSALVLMAMVKRKDSRGRAKRSGSGATNFSLLKQAGDVEENPGPTSATMDWIWRILFLVGAATGAHSGPQLGPYELWELSHGSALRRLLGLFGFEQVQLQQPGAELVKPGASVKMSCKASGYAFSSYWINWMKQKPGQGLEWIGQIYPGDGDTNYNGKFKGRATLTADTSSSTAYMQLSSLTSEDSAVYFCARSITTVVGCAMDYWGQGTSVTVSSTRIQNPDPAVYQLRDSKSSDKSVCLFTDFDSQTNVSQSKDSDVYITDKCVLDMRSMDFKSNSAVAWSNKSDFACANAFNNSIIPEDTFFPSPESSCDVKLVEKSFETDTNLNFQNLSVIGFRILLLKVAGFNLLMTLRLWSSRAKRSGSGVKQTLNFDLLKLAGDVESNPGPSRGHMTEYKPTVRLATRDDVPRAVRTLAAAFADYPATRHTVDPDRHIERVTELQELFLTRVGLDIGKVWVADDGAAVAVWTTPESVEAGAVFAEIGPRMAELSGSRLAAQQQMEGLLAPHRPKEPAWFLATVGVSPDHQGKGLGSAVVLPGVEAAERAGVPAFLETSAPRNLPFYERLGFTVTADVEVPEGPRTWCMTRKPGA
B6: 22228 (protein)
chain: MALPVTALLLPLALLLHAARPDIQMTQSPSSLSASVGDRVTITCKASDHINNWLAWYQQKPGQAPKLLIYGATTLETGVPSRFSGSGSGTDYTLTISSLQPEDFATYYCQQSWNTPWTFGQGTKLEIKRLEDLKNVFPPEVAVFEPSEAEISHTQKATLVCLATGFYPDHVELSWWVNGKEVHSGVCTDPQPLKEQPALNDSRYCLSSRLRVSATFWQNPRNHFRCQVQFYGLSENDEWTQDRAKPVTQIVSAEAWGRADCGFTSESYQQGVLSATILYEILLGKATLYAVLVSALVLMAMVKRKDSRGRAKRSGSGATNFSLLKQAGDVEENPGPTSATMDWIWRILFLVGAATGAHSGPQDKLTQWPKWLEGSGGGGSGGGGSGGGGSFEQVQLQQPGAELVKPGASVKMSCKASGYAFSSYWINWMKQKPGQGLEWIGQIYPGDGDTNYNGKFKGRATLTADTSSSTAYMQLSSLTSEDSAVYFCARSITTVVGCAMDYWGQGTSVTVSSTRIQNPDPAVYQLRDSKSSDKSVCLFTDFDSQTNVSQSKDSDVYITDKCVLDMRSMDFKSNSAVAWSNKSDFACANAFNNSIIPEDTFFPSPESSCDVKLVEKSFETDTNLNFQNLSVIGFRILLLKVAGFNLLMTLRLWSSRAKRSGSGVKQTLNFDLLKLAGDVESNPGPSRGHMTEYKPTVRLATRDDVPRAVRTLAAAFADYPATRHTVDPDRHIERVTELQELFLTRVGLDIGKVWVADDGAAVAVWTTPESVEAGAVFAEIGPRMAELSGSRLAAQQQMEGLLAPHRPKEPAWFLATVGVSPDHQGKGLGSAVVLPGVEAAERAGVPAFLETSAPRNLPFYERLGFTVTADVEVPEGPRTWCMTRKPGA

The subject of the experiment is RAJI cells. As to the kind of experiment: JNG assay, co-culture with RAJI cells. Type of experiment: cell-based. The following applies: JNG cells expressing construct, co-culture with Raji. The gist of the method:
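Read-out is NFAT-driven GFP measured by flow cytometry after ~4–18 h co-culture of SAR-expressing JNG cells with target cells (E:T about 1:2). SARs were introduced by lentiviral spinfection and selected with puromycin or blasticidin when possible; scores (+/- to 5+ ≈ 5–50% GFP+) are relative to parental JNG cells.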
For the molecule B1, the “NFAT-GFP ASSAY: Raji” value is “Raji (+/-) (refer to approximately 5%, 10%, 20%, 30%, 40% and 50% GFP positive cells)”. Take B2: the “NFAT-GFP ASSAY: Raji” value is 4+ (refer to approximately 5%, 10%, 20%, 30%, 40% and 50% GFP positive cells). Take B3: the “NFAT-GFP ASSAY: Raji” value was “Raji (5+) (refer to approximately 5%, 10%, 20%, 30%, 40% and 50% GFP positive cells)”. With B4 the entry was “Raji (4+) (refer to approximately 5%, 10%, 20%, 30%, 40% and 50% GFP positive cells)”; with B5, “Raji (4+) (refer to approximately 5%, 10%, 20%, 30%, 40% and 50% GFP positive cells)”. In the case of B6 it was “Raji (2+) (refer to approximately 5%, 10%, 20%, 30%, 40% and 50% GFP positive cells)”.
